Data on four molecules can be found in patent US20050153894.

Experiment [1] has as its target cyclin D1 (human), P24385. The experiment in a line: competition. The note with it: modification not given.
A further experiment has as its target cyclin A (human), P20248. The experiment in a line: competition. The settings on record: modification not given.

As a reminder, the IC50 is the point on the concentration scale where inhibition reaches its midpoint. A high value points to a need for much substance.

cyclin D1 (human), P24385, sequence (P24385 whole entry): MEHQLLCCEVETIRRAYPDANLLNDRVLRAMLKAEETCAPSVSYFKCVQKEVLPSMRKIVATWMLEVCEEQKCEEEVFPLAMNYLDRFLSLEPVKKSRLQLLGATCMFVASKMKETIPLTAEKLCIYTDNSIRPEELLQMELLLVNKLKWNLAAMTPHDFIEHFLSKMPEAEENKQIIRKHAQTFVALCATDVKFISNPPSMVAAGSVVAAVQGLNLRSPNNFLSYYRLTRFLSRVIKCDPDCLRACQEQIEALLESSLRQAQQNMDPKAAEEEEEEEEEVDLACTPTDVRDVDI
cyclin A (human), P20248, sequence (P20248 whole entry): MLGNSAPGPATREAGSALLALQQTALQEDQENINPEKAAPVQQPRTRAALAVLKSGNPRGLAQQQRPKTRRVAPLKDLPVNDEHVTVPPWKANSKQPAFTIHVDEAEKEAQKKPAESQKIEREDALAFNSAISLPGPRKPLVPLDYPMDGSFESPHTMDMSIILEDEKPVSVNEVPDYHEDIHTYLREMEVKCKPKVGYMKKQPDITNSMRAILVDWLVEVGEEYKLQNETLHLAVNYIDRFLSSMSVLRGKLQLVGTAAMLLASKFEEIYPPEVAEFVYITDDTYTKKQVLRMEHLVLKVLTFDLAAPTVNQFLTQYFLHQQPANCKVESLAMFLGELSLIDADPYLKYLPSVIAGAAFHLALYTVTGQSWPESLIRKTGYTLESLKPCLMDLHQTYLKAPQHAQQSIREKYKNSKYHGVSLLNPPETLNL

HSKRRLDL: the IC50 in experiment [1] was more than 200 µM.

In turn, PVKRRLDL [E2F1 PVKRRLDL] showed an IC50 in experiment [1] of more than 100 µM.

On to HSKRRLFG, for which the IC50 in experiment [1] is more than 200 µM.

As for RRLNF [Ac-RRLNF-NH2], the IC50 with cyclin A (human), P20248 came out at 8.15 µM.
